The supplement of paper PMC10567573

B1: CDC25A (parent)
chain: QLIDPDENKENEAFEFKKPVRPVS
B2: PTPN9 (parent)
chain: IDFLRVVRNQQSLAVSNMGARSKG

Variants of: B1
Experiment: protein stability index of a GFP-peptide fusion (GPS, HEK-293T) (PSI 1-6); higher = more stable
Conditions: c terminus: a fixed tail appended
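Also: lentivirally expressed fusions sorted by FACS into six bins by GFP to DsRed ratio, PSI derived from sequencing read proportions per bin multiplied by bin number.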

Protein stability index: each site, then its substitutions
K17: G 3.91; R 3.78; P 4.27; S 3.48; A 4.44; E 3.46; T 3.58; C 2.78; F 3.88; V 3.98; N 3.15; I 3.54; W 3.43; L 3.36; H 3.84; Y 3.7; Q 4.03; M 3.03
V20: M 3.82; E 4.04; N 4.63; Q 3.79; W 3.59; S 4; D 4.31; T 4.54; L 2.85; F 3.71; P 4.43; A 4.09; C 3.61; G 3.97; H 4.3; R 3.73; K 4.67; I 4
E15: T 3.92; A 4.01; P 4.16; K 4.3; Y 3.02; Q 4.08; N 3.13; I 3.7; F 3.41; D 3.77; R 2.37; V 3.36; H 3.57; W 3.54; G 2.89; L 3.36; S 4; M 4.37
V23: I 3.43; H 4.05; K 3.85; A 4.32; N 3.51; Y 3.32; R 3.11; D 4.41; E 4.1; S 3.09; P 3.52; M 2.46; Q 4.04; C 3.9; G 4.05; F 3.89
S24: G 3.54; C 3.5; A 4.16; E 4.67; L 3.21; M 3.49; N 3.34; Y 3.73; H 2.87; P 4.33; W 3.3; V 3.76; D 5.24; F 3.88; Q 4.25; K 4.72; R 3.58
P19: N 4.43; Y 3.07; A 4.44; Q 4.02; R 3.85; F 4.44; V 4.42; C 3.6; I 4.07; S 4.09; G 4.06; H 3.95; L 3.52; W 3.87; M 3.74; T 4.09
P22: H 3.38; G 3.66; K 3.25; T 2.8; L 3.45; Y 4.71; I 4.31; R 4.23; C 4.98; N 4.14; S 4.05; M 4.08; V 4.05; A 3.23; F 3.69; D 4.45
K18: D 4.47; I 3.97; F 4.33; W 3.73; S 4.55; T 4.33; A 3.7; Y 4; P 4.29; R 3.89; V 4.23; L 4.39; G 4.04; N 4.4; M 3.66; C 4.1; E 5.52; H 3.82
F14: Y 4.12; W 3.2
F16: K 3.99; H 4.56; A 4.03; E 4.18; M 3.73; N 4.08; G 3.76; Y 3.58; W 4.33; I 3.35; C 4.6; L 4.56; P 3.83; T 4.48; Q 3.73; V 4.39; S 4.21; D 4.46; R 4.53
R21: V 3.19; Q 4.67; M 3.81; A 3.27; K 4.04; L 3.8; T 4.04; F 2.74; W 3.28; N 5; I 3.39; H 3.85; C 4.34; P 4.46; G 4.97; D 4.25; E 4.33

Variants of: B2
Experiment: as above
Conditions: c terminus: a fixed tail appended

Protein stability index of substitutions, site by site:
I1: G 3.72; D 4.38; R 3.35; V 3.03; F 2.75; C 2.8; M 2.96; K 3.59; N 3.83; E 4; Y 3.47; A 3.18; L 2.95; T 3.43; Q 4.35; H 3.96; W 2.88; S 3.1; P 4.25
R8: E 3; P 2.51; I 2.65; G 2.37; W 1.94; M 1.46; L 2.04; N 2.27; V 1.88; H 2.32; C 2.27; S 1.8; Y 1.78; K 2.26; A 2.54; D 3.22; T 2.13; F 1.47; Q 2.32
N9: A 1.94; F 2.66; E 2.67; H 2.57; D 3.66; C 1.96; G 2.3
D2: W 2.16; M 1.38; A 1.82; K 1.42; V 2.84; P 2.54; R 2.03; L 1.53; I 2.35; G 2.64; Y 1.78; C 2.06; H 2.41; N 2.06; S 2.55; E 2.54; F 2.33; T 2.05; Q 1.88
R5: L 2.38; E 3.47; W 2; G 2.81; T 2.45; A 2.06; P 3.73; S 3; Q 3.27; H 3.15; V 1.83; Y 2.54; K 2.39; N 3.24; D 3.71; F 2.88; C 1.48; I 2.69; M 2.81
L4: Q 3.37; G 3.69; Y 1.89; V 2.6; W 1.72; N 3.48; A 3.04; R 3.06; I 1.69; P 3.86; C 2.94; F 2.3; E 4.22; M 2.48; D 4.58; S 3.6; K 3.25; T 3.33; H 3.35
F3: N 4.45; H 4.36; P 4.2; T 4.5; R 3.69; Q 3.89; K 3.93; W 2.17; M 2.75; S 3.88; E 4.29; L 2.47; C 3.89; Y 2.4; A 3.55; I 2.34; D 4.21; V 3.78; G 4.02
V7: F 1.84; W 2.91; A 3.7; L 1.85; I 2.41; K 2.66; M 2.03; P 2.94; S 3.61; N 3.53; R 3.37; Q 2.97; T 2.98; C 3.07; H 3.26; E 3.73; Y 2.23; D 3.16; G 2.96
V6: F 2.26; D 3.26; M 1.99; T 3.23; Y 2.13; R 2.38; E 3.36; H 2.67; L 2.5; P 3.31; N 3.35; I 1.99; K 2.8; C 2.42; A 3.12; W 2.74; G 3.53; S 3.36; Q 2.8
